Drawing on publication PMC2697320, “Identification of the high affinity binding site in the Streptococcus intermedius toxin intermedilysin for its membrane receptor, the human complement regulator CD59” (Molecular Immunology, 2009), this text covers fold increase of the dose required for 50% hemolysis of human erythrocytes against native ILY for 1 substance.

The target of the experiment is Human CD59 on human erythrocytes (human (endogenous in human erythrocytes)) (UniProt P13987).
Chain of Human CD59 on human erythrocytes (human (endogenous in human erythrocytes)) (P13987 26-102): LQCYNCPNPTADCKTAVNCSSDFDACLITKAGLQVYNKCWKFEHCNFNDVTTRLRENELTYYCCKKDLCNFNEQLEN

For ILY LI > TV mutant (natural protein), the fold increase of the dose required for 50% hemolysis of human erythrocytes against native ILY was 2.5 fold.
